Patent US20240352088A1 (AICHI PREFECTURE, published 2024)

Target: T1, IL-6 (interleukin-6) (human, UniProt P05231 30-212)
T1 construct: also called recombinant IL-6; human IL-6
Test: plasma IL-6 by ELISA 1, 2 and 4 h after i.v. human IL-6 (2 µg) in NSG mice given the CAR-T cells
Experimental: An NALM6 cell line stably transduced with EGFP-P2A-Luc2 (GL) (referred to as a “NALM6-GL cell line”) was administered at 2.5×10⁶ cells/mouse into the tail vein of the NSG mice (Charles River Laboratories Japan, JAX Mice Stock No: 005557). After 10 days, control cells transduced with only a CAR gene or GP130-IL6R-ca7R-transduced CAR-T cells were administered into the tail vein at 3×10⁶ cells/mouse. After another 7 days, 2 μg of human IL-6 was intravenously administered, and blood was collected at 1 hour, 2 hours, and 4 hours after the injection to measure the concentration of IL-6 in plasma by ELISA. Note that the control cells or GP130-IL6R-ca7R-transduced CAR-T cells used for the administration into the NSG mice were stimulated again with the NALM6-GL cell line on day 7 of culture and expanded, and cultured for 11 days.

binding result: binds
B1: chimeric cytokine receptor GP130-IL6R-ca7R (receptor)
chain: ELLDPCGYISPESPVVQLHSNFTAVCVLKEKCMDYFHVNANYIVWKTNHFTIPKEQYTIINRTASSVTFTDIASLNIQLTCNILTFGQLEQNVYGITIISGLPPEKPKNLSCIVNEGKKMRCEWDGGRETHLETNFTLKSEWATHKFADCKAKRDTPTSCTVDYSTVYFVNIEVWVEAENALGKVTSDHINFDPVYKVKPNPPHNLSVINSEELSSILKLTWTNPSIKSVIILKYNIQYRTKDASTWSQIPPEDTASTRSSFTVQDLKPFTEYVFRIRCMKEDGKGYWSDWSEEASGITYEDRPGSAGSAAGSGEFVDVPPEEPQLSCFRKSPLSNVVCEWGPRSTPSLTTKAVLLVRKFQNSPAEDFQEPCQYSQESQKFSCQLAVPEGDSSFYIVSMCVASSVGSKFSKTQTFQGCGILQPDPPANITVTAVARNPRWLSVTWQDPHSWNSSFYRLRFELRYRAERSKTFTTWMVKDLQHHCVIHDAWSGLRHVVQLRAQEEFGQGEWSEWSPEAMGTPWTESRSPPAENEVSTPMQALTTNKDDDNILFRDSANATSLPVQDSSSVPLPAAANNSSGEMDPILLPPCLTISILSFFSVALLVILACVLWKKRIKPIVWPSLPDHKKTLEHLCKKPRKNLNVSFNPESFLDCQIHRVDDIQARDEVEGFLQDTFPQQLEESEKQRLGGDVQSPNCPSEDVVITPESFGRDSSLTCLAGNVSACDAPILSSSRSLDCRESGKNGPHVYQDLLLSLGTTNSTLPPPFSLQSGILTLNPVAQGQPILTSLGSNQEEAYVTMSSFYQNQ
notes: Expressed on the surface of human CAR-T cells; also called GP130-IL6R-ca7R(WT)
